The assay has as its target His-Sumo–tagged talin F3 subdomain of the FERM domain (mouse, UniProt P26039 309-411). Kind of assay: pull-down.

Square brackets hold non-standard residues; d marks the D form. * marks the point of attachment. Biotin = O=C1N[C@H]2[C@H](CS[C@H]2CCCCC(=O)*)N1; pT = C[C@@H](OP(=O)(O)O)[C@H](N)C(=O)O

Sequence of His-Sumo–tagged talin F3 subdomain of the FERM domain (P26039 309-411): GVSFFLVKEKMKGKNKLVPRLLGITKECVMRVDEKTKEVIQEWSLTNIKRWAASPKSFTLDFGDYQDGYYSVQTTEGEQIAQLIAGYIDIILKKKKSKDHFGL

B1: biotin-integrin peptide β1-762-798 (peptide)
peptide: Biotin-EFAKFEKEKMNAKWDTGENPIYKSAVTTVVNPKYEGK-OH
SMILES: CC[C@H](C)[C@H](NC(=O)[C@@H]1CCCN1C(=O)[C@H](CC(N)=O)NC(=O)[C@H](CCC(=O)O)NC(=O)CNC(=O)[C@@H](NC(=O)[C@H](CC(=O)O)NC(=O)[C@H](Cc1c[nH]c2ccccc12)NC(=O)[C@H](CCCCN)NC(=O)[C@H](C)NC(=O)[C@H](CC(N)=O)NC(=O)[C@H](CCSC)NC(=O)[C@H](CCCCN)NC(=O)[C@H](CCC(=O)O)NC(=O)[C@H](CCCCN)NC(=O)[C@H](CCC(=O)O)NC(=O)[C@H](Cc1ccccc1)NC(=O)[C@H](CCCCN)NC(=O)[C@H](C)NC(=O)[C@H](Cc1ccccc1)NC(=O)[C@H](CCC(=O)O)NC(=O)CCCC[C@@H]1SC[C@@H]2NC(=O)N[C@@H]21)[C@@H](C)O)C(=O)N[C@@H](Cc1ccc(O)cc1)C(=O)N[C@@H](CCCCN)C(=O)N[C@@H](CO)C(=O)N[C@@H](C)C(=O)N[C@H](C(=O)N[C@H](C(=O)N[C@H](C(=O)N[C@H](C(=O)N[C@H](C(=O)N[C@@H](CC(N)=O)C(=O)N1CCC[C@H]1C(=O)N[C@@H](CCCCN)C(=O)N[C@@H](Cc1ccc(O)cc1)C(=O)N[C@@H](CCC(=O)O)C(=O)NCC(=O)N[C@@H](CCCCN)C(=O)O)C(C)C)C(C)C)[C@@H](C)O)[C@@H](C)O)C(C)C
Turning to B1, the binding result is “binds”.

B2: biotin-integrin phospho-peptide β1-762-798 pTpT (peptide)
peptide: Biotin-EFAKFEKEKMNAKWDTGENPIYKSAV[pT][pT]VVNPKYEGK-OH
SMILES: CC[C@H](C)[C@H](NC(=O)[C@@H]1CCCN1C(=O)[C@H](CC(N)=O)NC(=O)[C@H](CCC(=O)O)NC(=O)CNC(=O)[C@@H](NC(=O)[C@H](CC(=O)O)NC(=O)[C@H](Cc1c[nH]c2ccccc12)NC(=O)[C@H](CCCCN)NC(=O)[C@H](C)NC(=O)[C@H](CC(N)=O)NC(=O)[C@H](CCSC)NC(=O)[C@H](CCCCN)NC(=O)[C@H](CCC(=O)O)NC(=O)[C@H](CCCCN)NC(=O)[C@H](CCC(=O)O)NC(=O)[C@H](Cc1ccccc1)NC(=O)[C@H](CCCCN)NC(=O)[C@H](C)NC(=O)[C@H](Cc1ccccc1)NC(=O)[C@H](CCC(=O)O)NC(=O)CCCC[C@@H]1SC[C@@H]2NC(=O)N[C@@H]21)[C@@H](C)O)C(=O)N[C@@H](Cc1ccc(O)cc1)C(=O)N[C@@H](CCCCN)C(=O)N[C@@H](CO)C(=O)N[C@@H](C)C(=O)N[C@H](C(=O)N[C@H](C(=O)N[C@H](C(=O)N[C@H](C(=O)N[C@H](C(=O)N[C@@H](CC(N)=O)C(=O)N1CCC[C@H]1C(=O)N[C@@H](CCCCN)C(=O)N[C@@H](Cc1ccc(O)cc1)C(=O)N[C@@H](CCC(=O)O)C(=O)NCC(=O)N[C@@H](CCCCN)C(=O)O)C(C)C)C(C)C)[C@@H](C)OP(=O)(O)O)[C@@H](C)OP(=O)(O)O)C(C)C
With B2, the binding result is listed as “binds”.
